The values that follow are results of earlier work, collected in paper PMC2827818.

The target in the data set is IFNalpha2 (Homo sapiens) (UniProt P01563).

The term Kd denotes the concentration at which binding is half-saturated. IFNAR2 ECD (from UniProt P48551): the Kd was 10 nM.
